Reference: PMC9957003, “Functional Analyses of Rare Germline Missense BRCA1 Variants Located within and outside Protein Domains with Known Functions” (Genes, 2023)
Substitutions are numbered along the chain they refer to.

T1: Flag-PALB2 WT (Partner and Localiser of BRCA2) (UniProt Q86YC2 1-1186)
T1 construct: PALB2 (Partner and Localiser of BRCA2), wild type; printed both as Flag-PALB2 and as PALB2-Flag; also called PALB2-Flag; pDEST-FRT/T0-Flag-PALB2; source: HEK293FT, transiently co-transfected, in lysate
T1 sequence (looked up): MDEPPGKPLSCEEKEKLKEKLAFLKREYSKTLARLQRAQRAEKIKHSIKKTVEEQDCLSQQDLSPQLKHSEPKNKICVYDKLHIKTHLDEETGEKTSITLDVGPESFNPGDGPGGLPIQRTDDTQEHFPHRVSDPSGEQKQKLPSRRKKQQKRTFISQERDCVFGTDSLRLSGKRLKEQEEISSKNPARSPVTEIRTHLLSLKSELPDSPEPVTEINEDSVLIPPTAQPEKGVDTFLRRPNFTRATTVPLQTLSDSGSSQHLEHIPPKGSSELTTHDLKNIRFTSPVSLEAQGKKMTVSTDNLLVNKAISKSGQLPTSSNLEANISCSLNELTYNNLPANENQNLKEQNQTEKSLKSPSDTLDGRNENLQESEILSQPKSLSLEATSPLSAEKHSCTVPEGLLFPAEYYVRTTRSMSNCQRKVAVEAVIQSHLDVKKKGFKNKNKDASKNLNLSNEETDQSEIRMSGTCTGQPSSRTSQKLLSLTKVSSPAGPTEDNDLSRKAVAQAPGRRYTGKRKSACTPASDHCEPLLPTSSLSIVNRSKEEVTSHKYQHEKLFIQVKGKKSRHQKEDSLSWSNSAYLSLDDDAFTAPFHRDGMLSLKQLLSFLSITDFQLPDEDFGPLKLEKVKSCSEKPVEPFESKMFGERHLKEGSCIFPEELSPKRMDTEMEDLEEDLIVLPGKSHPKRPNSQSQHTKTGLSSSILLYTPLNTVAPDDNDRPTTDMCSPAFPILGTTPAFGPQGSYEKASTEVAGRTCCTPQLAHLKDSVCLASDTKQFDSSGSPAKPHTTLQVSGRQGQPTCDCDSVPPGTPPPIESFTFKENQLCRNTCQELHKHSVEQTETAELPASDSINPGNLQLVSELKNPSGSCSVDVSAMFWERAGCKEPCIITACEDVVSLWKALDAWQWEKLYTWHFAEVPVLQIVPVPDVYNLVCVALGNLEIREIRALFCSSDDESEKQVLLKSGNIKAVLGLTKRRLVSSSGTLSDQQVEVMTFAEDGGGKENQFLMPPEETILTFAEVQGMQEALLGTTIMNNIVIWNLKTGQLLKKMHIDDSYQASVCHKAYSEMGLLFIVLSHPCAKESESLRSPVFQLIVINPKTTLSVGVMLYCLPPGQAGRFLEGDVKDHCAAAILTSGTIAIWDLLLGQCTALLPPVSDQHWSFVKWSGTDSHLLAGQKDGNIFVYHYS

T2: BARD1-V5 WT (BRCA1-Associated RING Domain protein 1) (UniProt Q99728 1-777)
T2 construct: BARD1 (BRCA1-Associated RING Domain protein 1), wild type; also called pcDNA6.2-BARD1-V5; source: HEK293FT, transiently co-transfected, in lysate
T2 sequence (looked up): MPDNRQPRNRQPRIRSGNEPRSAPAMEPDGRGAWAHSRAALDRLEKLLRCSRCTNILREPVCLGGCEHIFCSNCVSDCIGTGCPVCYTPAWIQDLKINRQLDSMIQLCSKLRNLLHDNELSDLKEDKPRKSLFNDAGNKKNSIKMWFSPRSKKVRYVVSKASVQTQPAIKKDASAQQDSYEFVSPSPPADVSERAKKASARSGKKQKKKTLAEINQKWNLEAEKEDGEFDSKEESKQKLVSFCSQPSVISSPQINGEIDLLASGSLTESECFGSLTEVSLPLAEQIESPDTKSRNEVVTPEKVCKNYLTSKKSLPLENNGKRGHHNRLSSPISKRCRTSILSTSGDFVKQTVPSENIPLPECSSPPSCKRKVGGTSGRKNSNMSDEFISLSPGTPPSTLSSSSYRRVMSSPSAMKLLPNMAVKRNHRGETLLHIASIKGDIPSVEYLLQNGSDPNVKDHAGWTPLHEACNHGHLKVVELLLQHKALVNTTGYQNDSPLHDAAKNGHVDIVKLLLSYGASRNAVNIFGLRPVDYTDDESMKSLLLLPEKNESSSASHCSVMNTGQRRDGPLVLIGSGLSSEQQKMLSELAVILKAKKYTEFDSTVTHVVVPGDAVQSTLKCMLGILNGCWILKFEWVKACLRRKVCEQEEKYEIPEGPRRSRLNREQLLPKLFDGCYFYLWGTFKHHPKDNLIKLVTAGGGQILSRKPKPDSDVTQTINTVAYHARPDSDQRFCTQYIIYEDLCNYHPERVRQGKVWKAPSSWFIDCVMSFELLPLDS

B1: BRCA1 p.Met1411Thr (full-length, mCherry-tagged; pathogenic control variant, coiled-coil domain) (natural protein, human, UniProt P38398 1-1863, looked up)
chain: MDLSALRVEEVQNVINAMQKILECPICLELIKEPVSTKCDHIFCKFCMLKLLNQKKGPSQCPLCKNDITKRSLQESTRFSQLVEELLKIICAFQLDTGLEYANSYNFAKKENNSPEHLKDEVSIIQSMGYRNRAKRLLQSEPENPSLQETSLSVQLSNLGTVRTLRTKQRIQPQKTSVYIELGSDSSEDTVNKATYCSVGDQELLQITPQGTRDEISLDSAKKAACEFSETDVTNTEHHQPSNNDLNTTEKRAAERHPEKYQGSSVSNLHVEPCGTNTHASSLQHENSSLLLTKDRMNVEKAEFCNKSKQPGLARSQHNRWAGSKETCNDRRTPSTEKKVDLNADPLCERKEWNKQKLPCSENPRDTEDVPWITLNSSIQKVNEWFSRSDELLGSDDSHDGESESNAKVADVLDVLNEVDEYSGSSEKIDLLASDPHEALICKSERVHSKSVESNIEDKIFGKTYRKKASLPNLSHVTENLIIGAFVTEPQIIQERPLTNKLKRKRRPTSGLHPEDFIKKADLAVQKTPEMINQGTNQTEQNGQVMNITNSGHENKTKGDSIQNEKNPNPIESLEKESAFKTKAEPISSSISNMELELNIHNSKAPKKNRLRRKSSTRHIHALELVVSRNLSPPNCTELQIDSCSSSEEIKKKKYNQMPVRHSRNLQLMEGKEPATGAKKSNKPNEQTSKRHDSDTFPELKLTNAPGSFTKCSNTSELKEFVNPSLPREEKEEKLETVKVSNNAEDPKDLMLSGERVLQTERSVESSSISLVPGTDYGTQESISLLEVSTLGKAKTEPNKCVSQCAAFENPKGLIHGCSKDNRNDTEGFKYPLGHEVNHSRETSIEMEESELDAQYLQNTFKVSKRQSFAPFSNPGNAEEECATFSAHSGSLKKQSPKVTFECEQKEENQGKNESNIKPVQTVNITAGFPVVGQKDKPVDNAKCSIKGGSRFCLSSQFRGNETGLITPNKHGLLQNPYRIPPLFPIKSFVKTKCKKNLLEENFEEHSMSPEREMGNENIPSTVSTISRNNIRENVFKEASSSNINEVGSSTNEVGSSINEIGSSDENIQAELGRNRGPKLNAMLRLGVLQPEVYKQSLPGSNCKHPEIKKQEYEEVVQTVNTDFSPYLISDNLEQPMGSSHASQVCSETPDDLLDDGEIKEDTSFAENDIKESSAVFSKSVQKGELSRSPSPFTHTHLAQGYRRGAKKLESSEENLSSEDEELPCFQHLLFGKVNNIPSQSTRHSTVATECLSKNTEENLLSLKNSLNDCSNQVILAKASQEHHLSEETKCSASLFSSQCSELEDLTANTNTQDPFLIGSSKQMRHQSESQGVGLSDKELVSDDEERGTGLEENNQEEQSMDSNLGEAASGCESETSVSEDCSGLSSQSDILTTQQRDTMQHNLIKLQQETAELEAVLEQHGSQPSNSYPSIISDSSALEDLRNPEQSTSEKAVLTSQKSSEYPISQNPEGLSADKFEVSADSSTSKNKEPGVERSSPSKCPSLDDRWYMHSCSGSLQNRNYPSQEELIKVVDVEEQQLEESGPHDLTETSYLPRQDLEGTPYLESGISLFSDDPESDPSEDRAPESARVGNIPSSTSALKVPQLKVAESAQSPAAAHTTDTAGYNAMEESVSREKPELTASTERVNKRMSMVVSGLTPEEFMLVYKFARKHHITLTNLITEETTHVVMKTDAEFVCERTLKYFLGIAGGKWVVSYFWVTQSIKERKMLNEHDFEVRGDVVNGRNHQGPKRARESQDRKIFRGLEICCYGPFTNMPTDQLEWMVQLCGASVVKELSSFTLGTGVHPIVVVQPDAWTEDNGFHAIGQMCEAPVVTREWVLDSVALYQCQELDTYLIPQIPHSHY
notes: BRCA1, human, full-length, pathogenic control missense variant in the coiled-coil domain, introduced in the WT plasmid; Made by site-directed mutagenesis of the plasmid of m1; also called c.4232T > C; source: HEK293FT, transiently co-transfected, in lysate
B2: BRCA1 p.Leu1439Phe (full-length, mCherry-tagged) (natural protein, human, UniProt P38398 1-1863, looked up)
chain: B1 chain with T1411M, L1439F
notes: BRCA1, human, full-length, rare germline missense variant introduced in the WT plasmid; Made by site-directed mutagenesis of the plasmid of m1; also called c.4315C > T; source: HEK293FT, transiently co-transfected, in lysate
B3: BRCA1 p.Ile925Val (full-length, mCherry-tagged) (natural protein, human, UniProt P38398 1-1863, looked up)
chain: B1 chain with I925V, T1411M
notes: BRCA1, human, full-length, rare germline missense variant introduced in the WT plasmid; Made by site-directed mutagenesis of the plasmid of m1; also called c.2773A > G; source: HEK293FT, transiently co-transfected, in lysate
B4: BRCA1 p.Gly890Arg (full-length, mCherry-tagged) (natural protein, human, UniProt P38398 1-1863, looked up)
chain: B1 chain with G890R, T1411M
notes: BRCA1, human, full-length, rare germline missense variant introduced in the WT plasmid; Made by site-directed mutagenesis of the plasmid of m1; also called c.2668G > A; source: HEK293FT, transiently co-transfected, in lysate
B5: BRCA1 p.Leu523Val (full-length, mCherry-tagged) (natural protein, human, UniProt P38398 1-1863, looked up)
chain: B1 chain with L523V, T1411M
notes: BRCA1, human, full-length, rare germline missense variant introduced in the WT plasmid; Made by site-directed mutagenesis of the plasmid of m1; also called c.1567T > G; source: HEK293FT, transiently co-transfected, in lysate
B6: BRCA1 p.Gly933Asp (full-length, mCherry-tagged) (natural protein, human, UniProt P38398 1-1863, looked up)
chain: B1 chain with G933D, T1411M
notes: BRCA1, human, full-length, rare germline missense variant introduced in the WT plasmid; Made by site-directed mutagenesis of the plasmid of m1; also called c.2798G > A; source: HEK293FT, transiently co-transfected, in lysate

Molecular target: T1, Flag-PALB2 WT (Partner and Localiser of …)
Assay: co-IP; HEK293FT co-transfected with BRCA1 WT or variant and Flag-PALB2; 2 mg lysate protein incubated 90 min at 4 °C with Flag antibody coupled to Dynabeads Protein G; non-denaturing elution; BRCA1 in the IP detected by anti-BRCA1 blot, normalised to the anti-Flag signal, % of WT
Details: partners not purified

Compared with B1, B2 is higher in “Co-IP PALB2 (% of WT)” value: 11 % of WT for the first, 86 % of WT for the second.

Compared with B3, B4 is higher in “Co-IP PALB2 (% of WT)” value: 88 % of WT for the first, 89 % of WT for the second.

First: B5
Second: B6
The “Co-IP PALB2 (% of WT)” value of the first is lower: 73 % of WT for the first, 115 % of WT for the second.

Molecular target: T2, BARD1-V5 WT (BRCA1-Associated RING …)
Assay: co-IP; HEK293FT co-transfected with BRCA1 WT or variant and BARD1-V5; 2 mg lysate protein incubated 90 min at 4 °C with V5 antibody coupled to Dynabeads Protein G; non-denaturing elution; BRCA1 in the IP detected by anti-BRCA1 blot, normalised to the anti-V5 signal, % of WT
Details: partners not purified

First: B2
Second: B3
The “Co-IP BARD1 (% of WT)” value of the first is lower: 60 % of WT for the first, 97 % of WT for the second.

First: B4
Second: B5
The “Co-IP BARD1 (% of WT)” value of the first is higher: 77 % of WT for the first, 71 % of WT for the second.

In the case of B6, the “Co-IP BARD1 (% of WT)” value is reported as 73 % of WT.
